From patent US20050244864A1, “Development and use of fluorescent probes of unbound analytes” (priority 2004, published 2005)

What was measured:
[1] = Screening of FFA-insensitive probes for response to UCB:BSA complexes (ΔI/Io); assay type: binding; settings: fractional change in fluorescence intensity
Protocol: A probe for unbound unconjugated bilirubin (UCBu) was developed and used to measure concentrations of UCBu in plasma spiked with a defined quantity of unconjugated bilirubin (UCB). Using 384-well plates, 335 mutant probes that were insensitive to FFA were screened for their response to UCB:BSA complexes at UCB:BSA ratios of 1:1 and 1:2 in aqueous buffer. All probes were prepared from rI-FABP-L72A with 1 to 5 mutations. Screening was conducted by comparing the fractional change in fluorescence intensity (ΔI/Io, where ΔI is the difference in probe intensity in the presence and absence of UCB and Io is the intensity in the absence of UCB) for the probes with that for ADIFAB2. This value was calculated for two emission wavelengths: 440 and 500 nm. […] The emitted fluorescence of these probes is quenched by binding of UCB.

[2] = Probe calibration: binding affinities for fatty acids
Protocol: In a preferred embodiment, the template FABP is recombinant rat intestinal fatty acid binding protein (rI-FABP). Derivatization with acrylodan is performed using known methods substantially as previously described (U.S. Pat. No. 5,470,714 & Richieri, G. V, et al., J. Biol. Chem., (1992) 276: 23495-23501), and the resulting probe (ADIFAB) is commercially available (FFA Sciences LLC, San Diego, Calif.). […] The wavelength emitted by the fluorescently-labeled FABP depends upon the label and protein used. In an alternate preferred embodiment, the template protein is rI-FABP that has Ala substituted for Leu at position 72 (rI-FABP-L72A) with the resulting probe named ADIFAB2. […] Experiments typically involve measuring the fluorescence response within both emission maxima or at wavelengths for which the effect of interfering molecules such as hemoglobin can be eliminated as described in (U.S. application Ser. No. 10/670,958 and PCT/US2004/030521) and the calculation of the ratio ‘R’ of the two fluorescence intensities. The baseline value for this ratio, measured in the absence of analyte, is designated R0.
For each probe considered to have a useful phenotype, the sequence is determined, milligram quantities of the probe are prepared and the probe is calibrated. […] Spectra of probes were analyzed for true ratio behavior. […]

binding affinities relative to ADIFAB [2]: about 10 fold
B1: ADIFAB2: rI-FABP with Ala substituted for Leu at position 72 (rI-FABP-L72A), derivatized with acrylodan; reference probe (protein, UniProt P02693 2-132, looked up, variant L72A)
Fatty acid-binding protein, …: AFDGTWKVDRNENYEKFMEKMGINVVKRKLGAHDNLKLTITQEGNKFTVKESSNFRNIDVVFELGVDFAYSAADGTELTGTWTMEGNKLVGKFKRVDNGKELIAVREISGNELIQTYTYEGVEAKRIFKKE
modifications: acrylodan label
ΔI/Io 1:1 UCB:BSA 440 nm ([1]; UCB:BSA 1:1, emission 440 nm): −0.40
ΔI/Io 1:1 UCB:BSA 500 nm ([1]; UCB:BSA 1:1, emission 500 nm): −0.34
ΔI/Io 1:2 UCB:BSA 440 nm ([1]; UCB:BSA 1:2, emission 440 nm): −0.19
ΔI/Io 1:2 UCB:BSA 500 nm ([1]; UCB:BSA 1:2, emission 500 nm): −0.16
